Results on 20 molecules are retold here after PMC11147780, “Vaccination induces broadly neutralizing antibody precursors to HIV gp41” (Nature Immunology, 2024).

B1: NHP-10E8_MPER-GT10v55_W26-02 (antibody, V domains shown)
VH: EVQLVESGGGLAKPGGSLRLSCAASGFTFSDYYMDWVRQAPGKGLEWVSRISNGGGSTWYADSVKGRFTISRENAKNTLYLQMNSLRAEDTAVYYCASELSYYNFWSGYGASYGLDSWGQGVVVTVSS
VL: QPVLTQPTSLSASPGASARLTCTLRSGISVGSYRIFWYQQKPGSPPRYLLNYHTDSDKHQGSGVPSRFSGSKDASANAGILLISGLQSEDEADYYCMIWHNNAYIFGAGTRLTV
B2: NHP-10E8_MPER-GT10v55_W21-05 (antibody, V domains shown)
VH: EVRLVESGGGLVQPGGSLRLSCAASGFTFSDYYMSWVRQAPGKGPEWVGFIRNKANGGTAEYAASVKGRFTISRDDSKSIASLQMNSLKTEDTAVYYCARDTYTYNFWSGYYRSNSLDVWGRGVLVTVSS
VL: SYDLTQPPSVSVSPGQTARITCGGDNIGSEAVHWYQQKPPQAPVQVIYSDSERPSGIPERFSGSKSGNTATLTISGVEAGDEADYYCQVWDISSDHYIFGAGTRLTV
B3: NHP-10E8_MPER-GT10v55_W21-11 (antibody, V domains shown)
VH: EVRLVESGGGLVQPGGSLRLSCAASGFTFSDYYMSWVRQAPGKGPEWVGFIRNKANGGTAEYAASVKGRFTISRDDSKSIASLQMNSLKTEDTAVYYCARDRGNYNFWSGYSGSDYFDYWGQGVLVTVSS
VL: QSVLTQPPSVSAAPGQKVTISCSGSSSNIGRSYVSWYQQVPGTAPKLLIYDNNKRPSGVSDRFSGSKSGTSASLAITGLQTGDEADYYCGAWDSSLSAGLFGGGTRLTV
B4: NHP-10E8_MPER-GT10v55_W21-14 (antibody, V domains shown)
VH: QVQLQESGPGLVKPSETLSLTCAVSGGSISSGYYYWSWIRQPPGKGLEWIGYITYSGSTSYNPSLKSRVTISRDTSKNQFSLKLSSVTAADTAVYYCASAPSYYNFWSGYYHLDYFDYWGQGVLVTVSS
VL: QSVLTQPPSVSGAPGQRVTISCTGSSSNIGGYYVSWYQQLPGTTPKLLIYQDNKRPSGVSDRFSGSKSGTSASLTITGLQTEDEADYYCLSYDSSLSAHGLFGGGTRLTV
B5: NHP-10E8_MPER-GT10v55_W21-03 (antibody, V domains shown)
VH: EVHLVESGAGLVQPGGSLRLSCAASGFTFRNSWMSWVRQAPGKGLEWIARIKRKADGETTDYAASVKGRFTLSRDDSKNTVYLQMDSLKTEDTAVYYCTTDQGYYNFWSGNYDYYGLDSWGQGVVVAVSS
VL: DIQMTQSPSSLSAFVGDRVTITCRASQGISTHLNWYQQKPGKAPKRLIYTSSNLETGVPSRFSGSGSGTDFTLTISSLQPEDFATYYCLQYNSDPWTFGQGTKVEIK
B6: NHP-10E8_MPER-GT10v55_W26-07 (antibody, V domains shown)
VH: QVQLQESGPGLVKPSETLSLTCAVSGGSFSSYWWGWIRQTPGKGLEWIGSIYGSSGTTEYNPSHKSRATISRDTSENQFSLKLSSVTAADTAVYYCARSGEWPYNFWGGTHNPPHWYFDLWGPGTPIIISS
VL: DVVMTQSPLSLSITPGQPASISCRSSHSLIHSNGNTYLSWYQQKPGQPPRRLIYEVSKQDSGVPERFSGSGAGTDFTLKISRVEAEDVGIYYCGQGTHLPLTFGPGTKLDIK
B7: NHP-10E8_MPER-GT10v55_W10-10 (antibody, V domains shown)
VH: EVQVVESGGGLVQPGGSLRLSCAASGFTFSDYAMDWVRQAPGKGLEWVGFIRSKDYGGTAEYAASVKGRFTISRDDSKNTAYLQMSSLKTEDTAVYYCTRDRRYYSFWSGYDRGWYFDLWGQGALVTVSS
VL: DIVMTQTPLSLPVTLGEPASISCRSSQSLLNSEDGNTSLAWYLQKPGQSPQLLIYEVSNRASGVPDRFSGSGSDTDFTLKISRVEAEDVGVYYCMQPLEFPPTFGQGTKVEIK
B8: NHP-10E8_MPER-GT10v55_W26-04 (antibody, V domains shown)
VH: EVQLVESGGGLVQPGGSLRLSCAASGFTFSSYGMHWVRQAPGKGLEWVAVIWYDGSKKYYADSVKDRFTISRDNSKNMLYLQMNNLKLEDTAVYYCARGGAYYNFWSGYYTLLNRFDVWGPGVLVTVSS
VL: DIVMTQTPLSLPVTPGEPASISCRSSQSLLDSEDGNTYLDWYLQKPGQSPQLLIYEVSNRASGVPDRFSGSGSDTDFTLKISRVEAEDVGVYYCMQGLEFPYSFGQGTKVEIK
B9: NHP-10E8_MPER-GT10v55_W21-13 (antibody, V domains shown)
VH: QLQLQESGPGLVKPSETLSLTCAVSGGSISGGYGWSWIRQPLGKGLEWIGHIFGSIGSTYYNPSLKSRVTISTDTSKNQFSLKLSSVTAADTAVYYCARTRSFYNFWSGYYTRHAFDFWGQGLRVTVSS
VL: DIVMTQTPLSLPVTLGEPASISCRSSQSLLDSEDGNTYLEWYLQKPGQSPQLLIYEVSNRASGVPDRFSGSGSDTDFTLKISRVEAEDVGVYYCMQALEFPPTFGQGTKVEIK
B10: NHP-10E8_MPER-GT10v55_W21-10 (antibody, V domains shown)
VH: EVRLVESGGDLVQPGGSLRLSCAASGFTFSYYSMSWVRQAPGKGLEWIGFIKNKADGGTEAYAESVKGRFTISRDDSENTLYLQMNSLKTDDTAVYSCTRGRVYYNFWSGFYTGGRFDVWGPGVLVTVSS
VL: DIVMTQTPLSLPVTPGEPASISCRSSQSLLDSEDGNTYLDWYLQKPGQSPQLLIYEVSNRASGVPDRFSGSGSDTDFTLKISRLEAEDVGVYYCMQGLEFPFTFGPGTKLDIK
B11: NHP-10E8_MPER-GT10v55_W21-17 (antibody, V domains shown)
VH: QVQLQESGPGLVKPSETLSLTCVVAGGSISDDYYWSWIRQSPGKGLEWIGYIYGSGGGTKYNPSLKNRVTISIDTSKNQFSLKLSSVTAADTAVYYCARELRYYNFWSGYYDNYYGLDSWGQGVVVTVSS
VL: DIVMTQTPLSLPITPGEPASISCRSSQSLLHSTGNTYLHWYLQKPGQSPQLLIYGGSNRASGVPDRFSGSGSGTDFTLKISKVEAEDVGVYYCVQAIAFPFTFGPGTKLDIK
B12: NHP-10E8_MPER-GT10v55_W21-08 (antibody, V domains shown)
VH: EVQLVESGGGLVQPGGSLRLSCAASGFTFSDYYMYWVRQAPGKGLEWVGFIRSKAYGGTAEYAASVKGRFTISRDDSKSIAYLQMSSLKTEDTAVYYCTRALPYYNFWSGYYTHFDAFDFWGQGLRVTVSS
VL: QAAPTQPPSVSGSPGQSVTISCTGTSSDIGYYNAVSWYQQHPGKAPKLMIYEVSKRPSGVSDRFSGSKSGNTASLTISGLQAEDEADYYCSSYAGSNTLLFGGGTRLTV
B13: NHP-10E8_MPER-GT10v55_W21-16 (antibody, V domains shown)
VH: QVQLQESGPGLVKPSETLSLTCAVSGGSISSGYYYWSWIRQPPGKGLEWIGYITYSGSTSYNPSLKSRVTISRDTSKNQFSLKLSSVTAADTAVYYCARVGVYYNFWSGYYTNTYFDYWGQGVLVTVSS
VL: QAAPTQPPSVSGSPGQSVTISCTGTSSDIGYYNAVSWYQQHPGKAPKLMIYEVSKRPSGVSDRFSGSKSGNTASLTISGLQAEDEADYYCSSYAGSNTFIFGAGTRLTV
B14: NHP-10E8_MPER-GT10v55_W21-06 (antibody, V domains shown)
VH: EVRLVESGGGLVQPGGSLRLSCAASGFTFSDYYMSWVRQAPGKGPEWVGFIRNKANGGTAEYAASVKGRFTISRDDSKSIASLQMNSLKTEDTAVYYCAREKVYYNFWSGYLENYGLDSWGQGVVVTVSS
VL: DVVMTQSPLSLPITPGQPASISCRSSQSLVYSDGKTYLNWYQQKPGQPPRRLIYQVSNRDSGVPDRFSGSGAGTDFTLKISRVEAEDVGVYYCMQGTHLPYSFGQGTKVEIK
B15: NHP-10E8_MPER-GT10v55_W21-15 (antibody, V domains shown)
VH: QLQLQESGPGLVKPSETLSLTCAVSGGSISSSNWWSWIRQPPGKGLEWIGRISGSGGSTSDNPSLKSRVTISKDTSKNQFSLKLSSVTAADTAVYYCASESFYYNFWSGYYQENSLDVWGRGVLVTVSS
VL: QPVLTQPTSLSASPGASARLSCTLSSGINVGSYSIFWYQQKPGSPPRYLLYYYSDSSKHQGSGVPSRFSGSKDASANAGLLLISGLQSEDEADYYCAIWHSSAYVLFGGGTRLTV
B16: NHP-10E8_MPER-GT10v55_W26-01 (antibody, V domains shown)
VH: QLQLQESGPGLVKPSETLSLTCAVSGGSISSNYWSWIRQPPGKGLEWIGRISGSGGSTDYNPSLKSRVTISTDTSKNQFSLKLSSVTAADTAVYYCAGNSHYYNFWSGYYGDNSLDVWGRGVLVTVSS
VL: SYDVTQPRSVSVSPGQTARITCGGDNIGSKNVHWYQQKPAQAPVLVIYYDSDRPSGIPERFSGSNSGNTATLTISGVEAGDEADYYCQVWDSSSDHRLFGGGTRLTV
B17: NHP-10E8_MPER-GT10v55_W21-07 (antibody, V domains shown)
VH: EVQLVESGGGLVQPGGSLRLSCAASGFTFSDYAMDWVRQAPGKGLEWVGFIRSKAYGGTAEYAASVKGRFTISRDDSKNTAYLQMSSLKTEDTAVYYCTRAARGYNFWSGYYTGYGLDSWGQGVVVTVSS
VL: EIVMTQSPATLSLSPGERATLSCRTSQSVSSYVAWYQQKPEQAPRLLIYGASSRATGIPDRFSGGGSGTDFTLTISSLEPEDFAVYYCQQYSNWPYSFGQGTKVEIK
B18: NHP-10E8_MPER-GT10v55_W21-09 (antibody, V domains shown)
VH: EVRLVESGGGLVQPGGSLRLSCAASGFTFSDYYMSWVRQAPGKGPEWVGFIRNKANGGTAEYAASVKGRFTISRDDSKSIASLQMNSLKTEDTAVYYCARESPYYNFWSGYYGTNDAFDFWGQGLRVTVSS
VL: QPVLTQSPSASASLGASVKLTCTLSSGHSSYAIAWHQQQQGKAPRYLMRLNSVGSHSKGDGIPDRFSGSSSGAERYLTISNLQSEDEADYYCQTWTTGIQVFGGGTRLTV
B19: NHP-10E8_MPER-GT10v55_W10-11 (antibody, V domains shown)
VH: EVQLVESGGGLVQPGGSLRLSCAASGFAFSDYTMDWVRQAPGKGLEWVGFIRSRDYGGKVDYAASVKGRFTISRDDSKNTAYLHMSSLKTEDTAVYYCTRSKRHYSFWSGDYPHYGLDSWGQGVVVTVSS
VL: QSVVTQPPSVSGDPGQRVTIYCTGNSSNIGGYDVYWYQQVPGTAPKLLMYENNKRPSGVSDRFSGSKSGTSASLTITGLQSEDEAEYYCETWDNSLNGRVFGGGTRLTV
B20: NHP-10E8_MPER-GT10v55_W10-12 (antibody, V domains shown)
VH: EVHLVESGGGLVQPGGSLRLSCAASGFTFSDYAMDWVRQAPGKGLEWVGFIGSKDYGGTVEYAASVKGRFTISRDDLKNTAYLQMSRLKTEDTAVYYCTRSKTCYSFWSGYYPHYGLDSWGQGVVVTVSS
VL: QSVLTQPPSVSGDPGQRVTISCTGNSSNIGGFDVYWYQLLPGTAPKLLIYENTKRPSGISDRFSGSKSGTSASLTITGLQSEDEAEYYCETWDNSLNGRLFGGGTRLTV

The target in this test is T1, 10E8-GT10.2 epitope scaffold (designed scaffold 10E8-GT10.2 with …, N-linked glycosylation sites added (positions not given)).
T1 chain: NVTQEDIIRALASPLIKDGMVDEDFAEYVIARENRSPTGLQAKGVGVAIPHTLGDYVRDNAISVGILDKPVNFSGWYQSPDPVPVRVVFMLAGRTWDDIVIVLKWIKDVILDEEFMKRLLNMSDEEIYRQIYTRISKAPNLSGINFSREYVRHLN
A word on the Kd: it is the constant that tells how readily two partners part at equilibrium. Regarding B1, the Kd stood at 3.09 µM.

Take B2: the Kd is 2.41 µM.

Molecule B3 came in with a Kd of 8.11 µM. Next, B4: 2.4 µM; B5: 8.32 µM. In turn, B6 displayed a Kd of 0.0326 µM. Next, B7: 0.0956 µM; B8: 5.05 µM; B9: 1.3 µM.

As to B10, the equilibrium dissociation constant (Kd) was 0.00081 µM. In turn, B11 displayed a dissociation constant (Kd) of 0.00241 µM.

B12 came in with a dissociation constant Kd of 13.2 µM. Next, B13: 2.4 µM; B14: 5.92 µM; B15: 5.13 µM. Next, B16: 3.69 µM; B17: 7.64 µM.

B18: binding was characterised by a dissociation constant (Kd) of 3.32 µM. To B19 belongs 4.16 µM; to B20, 0.752 µM.
